Assay results published in doi:10.1101/2020.03.19.999276 (bioRxiv, 2020).

B1: purified human TRPA1 (hTRPA1) (natural protein, UniProt O75762 1-1119, looked up)
chain: MKRSLRKMWRPGEKKEPQGVVYEDVPDDTEDFKESLKVVFEGSAYGLQNFNKQKKLKRCDDMDTFFLHYAAAEGQIELMEKITRDSSLEVLHEMDDYGNTPLHCAVEKNQIESVKFLLSRGANPNLRNFNMMAPLHIAVQGMNNEVMKVLLEHRTIDVNLEGENGNTAVIIACTTNNSEALQILLKKGAKPCKSNKWGCFPIHQAAFSGSKECMEIILRFGEEHGYSRQLHINFMNNGKATPLHLAVQNGDLEMIKMCLDNGAQIDPVEKGRCTAIHFAATQGATEIVKLMISSYSGSVDIVNTTDGCHETMLHRASLFDHHELADYLISVGADINKIDSEGRSPLILATASASWNIVNLLLSKGAQVDIKDNFGRNFLHLTVQQPYGLKNLRPEFMQMQQIKELVMDEDNDGCTPLHYACRQGGPGSVNNLLGFNVSIHSKSKDKKSPLHFAASYGRINTCQRLLQDISDTRLLNEGDLHGMTPLHLAAKNGHDKVVQLLLKKGALFLSDHNGWTALHHASMGGYTQTMKVILDTNLKCTDRLDEDGNTALHFAAREGHAKAVALLLSHNADIVLNKQQASFLHLALHNKRKEVVLTIIRSKRWDECLKIFSHNSPGNKCPITEMIEYLPECMKVLLDFCMLHSTEDKSCRDYYIEYNFKYLQCPLEFTKKTPTQDVIYEPLTALNAMVQNNRIELLNHPVCKEYLLMKWLAYGFRAHMMNLGSYCLGLIPMTILVVNIKPGMAFNSTGIINETSDHSEILDTTNSYLIKTCMILVFLSSIFGYCKEAGQIFQQKRNYFMDISNVLEWIIYTTGIIFVLPLFVEIPAHLQWQCGAIAVYFYWMNFLLYLQRFENCGIFIVMLEVILKTLLRSTVVFIFLLLAFGLSFYILLNLQDPFSSPLLSIIQTFSMMLGDINYRESFLEPYLRNELAHPVLSFAQLVSFTIFVPIVLMNLLIGLAVGDIAEVQKHASLKRIAMQVELHTSLEKKLPLWFLRKVDQKSTIVYPNKPRSGGMLFHIFCFLFCTGEIRQEIPNADKSLEMEILKQKYRLKDLTFLLEKQHELIKLIIQKMEIISETEDDDSHCSFQDRFKKEQMEQRNSRWNTVLRAVKAKTHHLEP
modifications: Ni-NTA Atto647N on the N-terminal His-tag (labeled copies in FCS)
B2: Δ1-688 hTRPA1 (hTRPA1 without its N-terminal ankyrin repeat domain) (domain or fragment, human, UniProt O75762 689-1119, looked up)
chain: MVQNNRIELLNHPVCKEYLLMKWLAYGFRAHMMNLGSYCLGLIPMTILVVNIKPGMAFNSTGIINETSDHSEILDTTNSYLIKTCMILVFLSSIFGYCKEAGQIFQQKRNYFMDISNVLEWIIYTTGIIFVLPLFVEIPAHLQWQCGAIAVYFYWMNFLLYLQRFENCGIFIVMLEVILKTLLRSTVVFIFLLLAFGLSFYILLNLQDPFSSPLLSIIQTFSMMLGDINYRESFLEPYLRNELAHPVLSFAQLVSFTIFVPIVLMNLLIGLAVGDIAEVQKHASLKRIAMQVELHTSLEKKLPLWFLRKVDQKSTIVYPNKPRSGGMLFHIFCFLFCTGEIRQEIPNADKSLEMEILKQKYRLKDLTFLLEKQHELIKLIIQKMEIISETEDDDSHCSFQDRFKKEQMEQRNSRWNTVLRAVKAKTHHLEP
modifications: Ni-NTA Atto647N on the N-terminal His-tag (labeled copies in FCS)

Target: the molecule itself
Experiment: fluorescence correlation spectroscopy

Row | Protein | stoichiometry N
1 | B1 | 4
2 | B2 | 4
